This experiment has as its system rats with middle cerebral artery occlusion. The experiment can be described thus: Stefin A in rat stroke model, infarcted brain tissue volume. In kind it is in vivo. To be noted: compared to animals without inhibitor. The source says:
The inventors have used a stroke model in rats, explained in more detail hereinbelow, to verify this. In this model, a nylon monofilament is advanced through the vasculature of anesthetized rats until it blocks the middle cerebral artery. The monofilament is left in place for two hours. Withdrawal of the monofilament initiates reperfusion of the ischemic tissue. The extent of damage is visualized seven days after the ischemic event by removing the brain of the animal and examining it in section.
The initial cathepsin inhibitor used by the inventors was a large naturally occurring molecule, stefin A (MW 15,000). In the stroke model, this molecule was administered intraventricularly in some studies prior to the occlusion and intravenously upon reperfusion in others.

B1: stefin A: large naturally occurring molecule (MW 15,000), cathepsin inhibitor, recombinant preparation, used as control (protein, UniProt P01040 1-98, looked up)
Cystatin-A: MIPGGLSEAKPATPEIQEIVDKVKPQLEEKTNETYGKLEAVQYKTQVVAGTNYYIKVRAGDNKYMHLKVFKSLPGQNEDLVLTGYQVDKNKDDELTGF
As to B1, the “reduction in the volume of the infarcted brain tissue” value by setting is: (administered intravenously upon reperfusion) ~40%; (administered intraventricularly prior to the occlusion) ~40%.

Values taken from US6458760B1, “Method for treating tissue damaged from ischemia” (Henry Ford Health System, priority 1998, dated 2002).
